Values belong to the binder of their own block, whether it stands above or below them.
Tests used:
Conditions in all cases: both partners purified
[1] = molecular target: T1, Atg12~Atg5 conjugate (S. cerevisiae, UniProt P38316 1-186; Q12380 1-294, conjugated to Atg5 (Atg12~Atg5 protein conjugate) | conjugated to Atg12); assay: SEC; separately purified proteins mixed in a molar ratio 1:1 for 30 min at 4°C or on ice; the resulting complex purified on Superdex S200 16/60
T1 construct: Atg12, S. cerevisiae; Atg5, S. cerevisiae; the two chains are covalently joined; source: E. coli Rosetta pLysS, co-expression of 6xHis-Atg5, Atg12, Atg7 and Atg10, purified
T1 sequence (looked up) 1: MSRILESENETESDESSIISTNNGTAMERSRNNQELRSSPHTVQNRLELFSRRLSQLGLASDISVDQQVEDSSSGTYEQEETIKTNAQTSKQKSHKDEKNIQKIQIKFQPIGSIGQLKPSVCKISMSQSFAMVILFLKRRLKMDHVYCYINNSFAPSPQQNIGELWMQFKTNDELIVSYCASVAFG
T1 sequence (looked up) 2: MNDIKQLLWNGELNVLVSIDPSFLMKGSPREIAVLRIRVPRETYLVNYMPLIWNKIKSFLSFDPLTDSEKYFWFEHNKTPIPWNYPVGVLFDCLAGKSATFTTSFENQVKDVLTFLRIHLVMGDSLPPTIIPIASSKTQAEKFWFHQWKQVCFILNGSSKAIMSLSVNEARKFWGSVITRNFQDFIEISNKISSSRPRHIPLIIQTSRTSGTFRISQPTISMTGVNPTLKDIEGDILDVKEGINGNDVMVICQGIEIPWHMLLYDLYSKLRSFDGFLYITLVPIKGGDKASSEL

[2] = molecular target: T2, Atg5 (S. cerevisiae, UniProt Q12380 1-294); assay: as above
T2 construct: Atg5, S. cerevisiae; in the co-purification with Atg16 (1–46) the GST was still on the protein while it was held on glutathione beads; also called GST-Atg5; source: E. coli Rosetta pLysS, on glutathione beads, cleaved off with thrombin; not shown: GST, N-terminal, cleaved
T2 sequence (looked up): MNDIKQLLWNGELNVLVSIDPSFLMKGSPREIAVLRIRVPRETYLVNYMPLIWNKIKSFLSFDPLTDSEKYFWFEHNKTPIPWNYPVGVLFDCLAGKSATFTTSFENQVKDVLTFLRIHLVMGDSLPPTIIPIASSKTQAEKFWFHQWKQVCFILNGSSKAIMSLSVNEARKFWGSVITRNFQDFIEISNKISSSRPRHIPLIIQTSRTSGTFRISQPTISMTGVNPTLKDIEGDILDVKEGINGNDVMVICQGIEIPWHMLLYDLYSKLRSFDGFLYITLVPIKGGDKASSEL

[3] = molecular target: T3, Atg12~Atg5-Atg16 complex (S. cerevisiae, UniProt P38316 1-186; Q12380 1-294; Q03818 1-150, conjugated to Atg5 (Atg12~Atg5 protein conjugate) | conjugated to Atg12); assay: pull-down; GST-fused bait 5 µM and GST-free prey 5 µM with glutathione Sepharose 4B, 1 hr at 4°C; washed with 25 mM HEPES pH 7.5, 150 mM NaCl, 1 mM DTT and 0.1% TritonX100; Western blot (Figures 1A, 1C, 2A, 2C)
T3 construct: Atg12, S. cerevisiae; Atg5, S. cerevisiae; Atg16, S. cerevisiae; conjugate made by co-expression with Atg7 and Atg10 (SMC131); details in Romanov et al., 2012; also called E3-like complex; source: E. coli Rosetta pLysS; Atg12~Atg5 conjugate mixed 1:1 with purified Atg16, purified by size exclusion chromatography; not shown: GST, N-terminal, cleaved; copies: + +
T3 sequence (looked up) 1: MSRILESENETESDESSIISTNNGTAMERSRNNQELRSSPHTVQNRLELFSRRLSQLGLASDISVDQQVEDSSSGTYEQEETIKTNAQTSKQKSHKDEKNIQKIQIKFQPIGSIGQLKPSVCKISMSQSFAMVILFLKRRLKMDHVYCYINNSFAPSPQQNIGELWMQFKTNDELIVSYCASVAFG
T3 sequence (looked up) 2: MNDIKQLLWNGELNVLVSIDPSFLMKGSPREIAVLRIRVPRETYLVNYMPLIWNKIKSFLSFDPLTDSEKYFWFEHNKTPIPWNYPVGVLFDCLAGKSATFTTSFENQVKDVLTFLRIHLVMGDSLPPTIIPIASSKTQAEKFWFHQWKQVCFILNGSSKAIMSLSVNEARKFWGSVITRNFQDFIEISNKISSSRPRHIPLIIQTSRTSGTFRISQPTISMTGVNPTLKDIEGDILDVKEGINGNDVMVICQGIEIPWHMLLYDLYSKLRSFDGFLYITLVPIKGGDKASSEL
T3 sequence (looked up) 3: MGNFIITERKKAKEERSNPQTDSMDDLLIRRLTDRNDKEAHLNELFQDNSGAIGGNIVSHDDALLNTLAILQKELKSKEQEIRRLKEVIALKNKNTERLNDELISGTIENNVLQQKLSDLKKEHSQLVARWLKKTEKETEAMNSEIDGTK

[4] = molecular target: T4, GST-Atg19 (S. cerevisiae, UniProt P35193 1-415); assay: pull-down; GST-fused bait 20 µM and GST-free prey 5 µM with glutathione Sepharose 4B, 1 hr at 4°C; washed with 25 mM HEPES pH 7.5, 150 mM NaCl, 1 mM DTT; anti-Atg5 Western blot (Figure 2E, Figure 3—figure supplement 1, Figure 4C)
T4 construct: Atg19, S. cerevisiae cargo receptor; also called full length GST-Atg19; Atg19 full length; source: E. coli Rosetta pLysS, purified; not shown: GST, N-terminal, kept
T4 sequence (looked up): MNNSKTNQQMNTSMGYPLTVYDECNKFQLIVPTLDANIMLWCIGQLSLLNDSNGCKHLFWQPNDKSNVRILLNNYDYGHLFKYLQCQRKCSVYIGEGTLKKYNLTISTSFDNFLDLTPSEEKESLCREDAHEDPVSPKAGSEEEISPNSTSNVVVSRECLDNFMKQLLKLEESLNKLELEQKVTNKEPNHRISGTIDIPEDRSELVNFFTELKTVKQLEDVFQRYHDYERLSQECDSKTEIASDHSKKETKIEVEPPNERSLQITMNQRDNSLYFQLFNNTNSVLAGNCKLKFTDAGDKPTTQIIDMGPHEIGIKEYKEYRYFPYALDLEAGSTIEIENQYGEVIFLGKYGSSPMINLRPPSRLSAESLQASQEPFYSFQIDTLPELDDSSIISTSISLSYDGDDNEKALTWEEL

B1: Atg16 (natural protein, S. cerevisiae, UniProt Q03818 1-150, looked up)
chain: MGNFIITERKKAKEERSNPQTDSMDDLLIRRLTDRNDKEAHLNELFQDNSGAIGGNIVSHDDALLNTLAILQKELKSKEQEIRRLKEVIALKNKNTERLNDELISGTIENNVLQQKLSDLKKEHSQLVARWLKKTEKETEAMNSEIDGTK
notes: Atg16, S. cerevisiae; also called purified Atg16; GST-Atg16; source: E. coli Rosetta pLysS, purified
binding result [1]: binds | binding result [2]: binds

B2: Atg16-meGFP (natural protein, S. cerevisiae, UniProt Q03818 1-150, looked up)
chain: MGNFIITERKKAKEERSNPQTDSMDDLLIRRLTDRNDKEAHLNELFQDNSGAIGGNIVSHDDALLNTLAILQKELKSKEQEIRRLKEVIALKNKNTERLNDELISGTIENNVLQQKLSDLKKEHSQLVARWLKKTEKETEAMNSEIDGTK
notes: Atg16, S. cerevisiae; source: E. coli Rosetta pLysS, purified; not shown: meGFP, C-terminal, kept
binding result [2]: binds

Results, then the binder that gave them:

binding result [3]: binds
B3: GST-Atg34 (natural protein, S. cerevisiae, UniProt Q12292 1-412, looked up)
chain: MKIAVETTLFDFFVIDQFKKSTFSAPNTKVDTIKGCINKFIEQFNVYDEQHIFWQPPGKSNVRLLSNANDFGQLGNFLHKKIKCNIFIGEEALRKYDLNICGPYDKFVENSDPSVKKVVNRDDVMLSRKCLNIISEQLSILEKSISKAQNQVLQSSEVEGKKCIILPEDKPELIKFFSKFETSVQLQEVYEGYKVYEKLLQKFGGQKKRMESFLNENTPMSGAEAIKQINISEELKEKGERLTTPNDPLLHVEVSNEDNSLHFILYNKTNIIIPGNCTFEFSSQISEVFSIKMGPHEIGIKGQKELWFFPSLPTPLSNYTMKVVNQDGETILVGKCADSNEITLKSPLASFSTGSFQTGSFHTLQDPTNVFRADALSSPDESSIMSTPFLGETDEVYNSGSTLSRPFTWEEI
notes: Atg34, S. cerevisiae cargo receptor; also called α-mannosidase (Ams1) receptor; source: E. coli Rosetta pLysS, purified; not shown: GST, N-terminal, kept

binding result [4]: binds
B4: Atg5(K137E)-Atg16 (1–46) (complex, S. cerevisiae)
chain 1: MNDIKQLLWNGELNVLVSIDPSFLMKGSPREIAVLRIRVPRETYLVNYMPLIWNKIKSFLSFDPLTDSEKYFWFEHNKTPIPWNYPVGVLFDCLAGKSATFTTSFENQVKDVLTFLRIHLVMGDSLPPTIIPIASSETQAEKFWFHQWKQVCFILNGSSKAIMSLSVNEARKFWGSVITRNFQDFIEISNKISSSRPRHIPLIIQTSRTSGTFRISQPTISMTGVNPTLKDIEGDILDVKEGINGNDVMVICQGIEIPWHMLLYDLYSKLRSFDGFLYITLVPIKGGDKASSEL
chain 2: MGNFIITERKKAKEERSNPQTDSMDDLLIRRLTDRNDKEAHLNELF
notes: Atg5, S. cerevisiae; Atg16, S. cerevisiae, first 46 amino acids; source: E. coli, co-expressed and purified in complex

Reference: PMC5148612, “Mechanism of cargo-directed Atg8 conjugation during selective autophagy” (eLife, 2016)
